Experimental data reported in patent publication WO2017208210A1.
Numbering of substitutions follows the chain as printed.

T1: human MCAM expressed on CHO cells transfected with the full length human MCAM gene (human) (UniProt P43121)
T1 sequence: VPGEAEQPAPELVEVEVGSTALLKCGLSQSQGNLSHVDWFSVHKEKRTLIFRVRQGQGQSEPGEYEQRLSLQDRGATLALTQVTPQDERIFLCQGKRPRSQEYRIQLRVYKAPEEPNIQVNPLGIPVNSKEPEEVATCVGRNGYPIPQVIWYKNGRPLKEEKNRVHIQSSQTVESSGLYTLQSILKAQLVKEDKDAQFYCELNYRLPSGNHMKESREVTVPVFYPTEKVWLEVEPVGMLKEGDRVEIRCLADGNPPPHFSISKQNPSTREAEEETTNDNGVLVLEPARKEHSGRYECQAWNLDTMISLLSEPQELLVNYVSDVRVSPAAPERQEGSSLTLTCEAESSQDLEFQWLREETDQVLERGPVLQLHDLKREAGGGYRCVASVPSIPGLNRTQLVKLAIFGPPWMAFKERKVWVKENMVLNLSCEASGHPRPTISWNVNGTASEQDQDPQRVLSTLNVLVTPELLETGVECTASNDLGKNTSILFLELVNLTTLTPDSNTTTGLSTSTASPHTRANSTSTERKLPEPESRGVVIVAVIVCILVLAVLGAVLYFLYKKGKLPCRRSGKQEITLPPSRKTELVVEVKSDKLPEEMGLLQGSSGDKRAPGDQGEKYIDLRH

T2: recombinant hMCAM-His (human) (UniProt P43121)
T2 sequence: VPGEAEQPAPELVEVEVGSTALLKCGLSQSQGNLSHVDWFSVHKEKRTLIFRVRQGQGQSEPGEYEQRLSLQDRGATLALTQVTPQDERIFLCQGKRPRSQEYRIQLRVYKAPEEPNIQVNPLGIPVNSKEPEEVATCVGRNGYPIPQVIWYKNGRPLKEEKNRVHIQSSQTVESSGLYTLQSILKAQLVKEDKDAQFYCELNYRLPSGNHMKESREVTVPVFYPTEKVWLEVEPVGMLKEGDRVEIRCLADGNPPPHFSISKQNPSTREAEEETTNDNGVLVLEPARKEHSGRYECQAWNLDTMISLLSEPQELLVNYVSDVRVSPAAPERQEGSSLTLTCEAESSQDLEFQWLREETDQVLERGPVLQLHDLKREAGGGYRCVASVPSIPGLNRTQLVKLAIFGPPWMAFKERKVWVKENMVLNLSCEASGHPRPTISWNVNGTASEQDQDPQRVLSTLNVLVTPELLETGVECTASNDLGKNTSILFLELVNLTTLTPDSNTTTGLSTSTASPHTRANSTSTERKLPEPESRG

B1: humanized 2120 antibody VH5VL3 (G-A N-deamidation mutant VH/conservative VL) (antibody, V domains shown)
VH: QVTLKESGPVLVKPTETLTLTCTVSGFSLTSNAVSWVRQPPGKALEWIAAISSGGTTYYNSAFKSRLTISRDTSKSQVVLTMTNMDPVDTATYYCARRYGYGWYFDFWGQGTLVTVSS
VL: DIQMTQSPSSLSASVGDRVTINCKASQNIYNSLAWYQQKPGKAPKVLIFNANSLQTGIPSRFSGSGSGTDFTLTISSLQPEDFATYYCQQFYSGYTFGQGTKLEIK
B2: PRX003 (humanized anti-MCAM antibody, human IgG1 kappa isotype) (antibody, V domains shown)
VH: B1 VH with Q1E
VL: B1 VL

What was measured:
[1] = molecular target: T1, human MCAM expressed on CHO cells transfected with the full length human MCAM gene (human); assay: laminin/FACS assay, blocking of laminin 411 binding to hMCAM expressing CHO cells
[2] = molecular target: T2, recombinant hMCAM-His (human); assay: competitive ELISA on hMCAM-His against biotinylated rodent or chimeric antibody
[3] = molecular target: chimpanzee MCAM on circulating T cells (chimpanzee); assay: FACS, chimpanzee whole blood in vitro

Binder | fold reduction in potency (laminin blocking) against the rodent parent [1] [x] | fold reduction in apparent affinity against the rodent parent [2] [x] | concentration required to saturate MCAM [3] [µg/mL]
B1 | < 2 | < 2 | –
B2 | – | – | 1 to 3
